Assay results from IntAct's records for PubMed 9312003.

B1: ADP-ribosylation factor 6 (Homo sapiens), P62330 (parent)
chain: MGKVLSKIFGNKEMRILMLGLDAAGKTTILYKLKLGQSVTTIPTVGFNVETVTYKNVKFNVWDVGGQDKIRPLWRHYYTGTQGLIFVVDCADRDRIDEARQELHRIINDREMRDAIILIFANKQDLPDAMKPHEIQEKLGLTRIRDRNWYVQPSCATSGDGLYEGLTWLTSNYKS
partner: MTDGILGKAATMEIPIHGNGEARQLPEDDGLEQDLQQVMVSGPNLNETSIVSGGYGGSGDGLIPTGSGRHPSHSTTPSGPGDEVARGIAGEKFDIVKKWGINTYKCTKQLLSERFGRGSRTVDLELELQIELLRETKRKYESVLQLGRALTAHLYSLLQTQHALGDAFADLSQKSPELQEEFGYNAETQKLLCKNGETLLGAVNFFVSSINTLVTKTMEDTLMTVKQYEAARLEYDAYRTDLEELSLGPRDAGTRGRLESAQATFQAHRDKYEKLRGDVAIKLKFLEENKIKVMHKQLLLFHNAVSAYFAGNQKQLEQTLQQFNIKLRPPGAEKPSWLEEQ

Variants of: B1
Conditions: with arfp2_human ARFIP2, P53365

Variant	effect of a mutation on the interaction
T28N	decreasing interaction
